This is an account of results in IntAct's records for PubMed 32296183.

First the molecules themselves.
B1: Ceroid-lipofuscinosis neuronal protein 6 (Homo sapiens), Q9NWW5 (parent)
chain: MEATRRRQHLGATGGPGAQLGASFLQARHGSVSADEAARTAPFHLDLWFYFTLQNWVLDFGRPIAMLVFPLEWFPLNKPSVGDYFHMAYNVITPFLLLKLIERSPRTLPRSITYVSIIIFIMGASIHLVGDSVNHRLLFSGYQHHLSVRENPIIKNLKPETLIDSFELLYYYDEYLGHCMWYIPFFLILFMYFSGCFTASKAESLIPGPALLLVAPSGLYYWYLVTEGQIFILFIFTFFAMLALVLHQKRKRLFLDSNGLFLFSSFALTLLLVALWVAWLWNDPVLRKKYPGVIYVPEPWAFYTLHVSSRH
partner: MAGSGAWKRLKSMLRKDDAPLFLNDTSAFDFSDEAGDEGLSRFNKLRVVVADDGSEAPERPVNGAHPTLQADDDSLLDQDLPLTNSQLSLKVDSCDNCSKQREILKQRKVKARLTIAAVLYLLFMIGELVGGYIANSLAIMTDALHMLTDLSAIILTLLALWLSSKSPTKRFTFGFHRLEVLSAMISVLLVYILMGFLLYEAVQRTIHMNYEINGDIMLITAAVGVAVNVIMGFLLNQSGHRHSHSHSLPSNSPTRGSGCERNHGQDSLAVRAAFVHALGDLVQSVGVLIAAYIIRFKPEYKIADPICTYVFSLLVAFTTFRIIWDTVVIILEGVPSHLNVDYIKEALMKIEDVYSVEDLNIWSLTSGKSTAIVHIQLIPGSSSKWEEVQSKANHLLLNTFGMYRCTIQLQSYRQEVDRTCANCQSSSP
B2: Ceroid-lipofuscinosis neuronal protein 6 (Homo sapiens), Q9NWW5 (parent)
chain: B1 chain
partner: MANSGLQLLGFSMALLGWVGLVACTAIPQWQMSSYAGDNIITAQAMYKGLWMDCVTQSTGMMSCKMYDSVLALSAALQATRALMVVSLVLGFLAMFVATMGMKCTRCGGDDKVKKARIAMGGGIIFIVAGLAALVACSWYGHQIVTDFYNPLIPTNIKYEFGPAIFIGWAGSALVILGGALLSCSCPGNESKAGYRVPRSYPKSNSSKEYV
B3: Very-long-chain enoyl-CoA reductase (Homo sapiens), Q9NZ01 (parent)
chain: MKHYEVEILDAKTREKLCFLDKVEPHATIAEIKNLFTKTHPQWYPARQSLRLDPKGKSLKDEDVLQKLPVGTTATLYFRDLGAQISWVTVFLTEYAGPLFIYLLFYFRVPFIYGHKYDFTSSRHTVVHLACICHSFHYIKRLLETLFVHRFSHGTMPLRNIFKNCTYYWGFAAWMAYYINHPLYTPPTYGAQQVKLALAIFVICQLGNFSIHMALRDLRPAGSKTRKIPYPTKNPFTWLFLLVSCPNYTYEVGSWIGFAIMTQCLPVALFSLVGFTQMTIWAKGKHRSYLKEFRDYPPLRMPIIPFLL
partner: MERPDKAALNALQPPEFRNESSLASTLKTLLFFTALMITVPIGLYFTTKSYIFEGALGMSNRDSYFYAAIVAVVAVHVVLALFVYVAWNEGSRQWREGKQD
B4: Golgi SNAP receptor complex member 2 (Homo sapiens), O14653 (parent)
chain: MDPLFQQTHKQVHEIQSCMGRLETADKQSVHIVENEIQASIDQIFSRLERLEILSSKEPPNKRQNARLRVDQLKYDVQHLQTALRNFQHRRHAREQQERQREELLSRTFTTNDSDTTIPMDESLQFNSSLQKVHNGMDDLILDGHNILDGLRTQRLTLKGTQKKILDIANMLGLSNTVMRLIEKRAFQDKYFMIGGMLLTCVVMFLVVQYLT
partner: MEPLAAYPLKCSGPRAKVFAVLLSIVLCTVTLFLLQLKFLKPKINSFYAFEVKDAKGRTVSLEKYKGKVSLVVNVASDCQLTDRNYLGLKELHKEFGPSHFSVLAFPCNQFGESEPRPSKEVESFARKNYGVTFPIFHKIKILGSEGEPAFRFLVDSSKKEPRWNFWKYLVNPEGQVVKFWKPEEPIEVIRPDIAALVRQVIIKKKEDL
B5: Golgi SNAP receptor complex member 2 (Homo sapiens), O14653 (parent)
chain: B4 chain
partner: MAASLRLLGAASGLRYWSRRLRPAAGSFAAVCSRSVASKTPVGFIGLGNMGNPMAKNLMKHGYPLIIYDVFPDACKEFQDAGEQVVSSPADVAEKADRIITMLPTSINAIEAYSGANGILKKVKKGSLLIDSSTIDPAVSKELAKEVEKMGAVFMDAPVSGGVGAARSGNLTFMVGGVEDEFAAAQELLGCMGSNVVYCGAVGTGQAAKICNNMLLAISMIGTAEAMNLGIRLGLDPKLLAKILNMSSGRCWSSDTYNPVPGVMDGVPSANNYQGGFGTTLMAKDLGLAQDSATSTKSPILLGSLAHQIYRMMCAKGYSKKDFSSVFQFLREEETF
B6: Golgi SNAP receptor complex member 2 (Homo sapiens), O14653 (parent)
chain: B4 chain
partner: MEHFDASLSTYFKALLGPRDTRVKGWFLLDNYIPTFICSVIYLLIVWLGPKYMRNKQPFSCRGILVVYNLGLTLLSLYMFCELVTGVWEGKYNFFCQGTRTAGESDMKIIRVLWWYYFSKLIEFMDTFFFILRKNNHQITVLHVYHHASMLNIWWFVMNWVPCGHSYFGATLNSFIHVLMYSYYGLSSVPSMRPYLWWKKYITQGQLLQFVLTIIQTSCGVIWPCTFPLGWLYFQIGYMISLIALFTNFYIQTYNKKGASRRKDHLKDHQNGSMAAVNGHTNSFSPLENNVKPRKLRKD
B7: Ceroid-lipofuscinosis neuronal protein 6 (Homo sapiens), Q9NWW5 (parent)
chain: B1 chain
partner: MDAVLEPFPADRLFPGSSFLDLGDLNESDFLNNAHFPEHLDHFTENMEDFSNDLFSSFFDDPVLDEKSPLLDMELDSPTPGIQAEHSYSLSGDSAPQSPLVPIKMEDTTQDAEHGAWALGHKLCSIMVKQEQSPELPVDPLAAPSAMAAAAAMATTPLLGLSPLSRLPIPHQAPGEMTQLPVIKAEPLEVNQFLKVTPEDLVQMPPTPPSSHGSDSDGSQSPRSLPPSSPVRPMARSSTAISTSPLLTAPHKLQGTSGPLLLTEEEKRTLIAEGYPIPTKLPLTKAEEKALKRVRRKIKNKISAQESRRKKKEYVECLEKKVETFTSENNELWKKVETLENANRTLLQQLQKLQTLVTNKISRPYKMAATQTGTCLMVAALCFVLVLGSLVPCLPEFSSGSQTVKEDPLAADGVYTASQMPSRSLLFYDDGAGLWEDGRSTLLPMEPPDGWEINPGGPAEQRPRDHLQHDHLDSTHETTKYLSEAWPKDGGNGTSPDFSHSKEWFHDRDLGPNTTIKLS
B8: Very-long-chain enoyl-CoA reductase (Homo sapiens), Q9NZ01 (parent)
chain: B3 chain
partner: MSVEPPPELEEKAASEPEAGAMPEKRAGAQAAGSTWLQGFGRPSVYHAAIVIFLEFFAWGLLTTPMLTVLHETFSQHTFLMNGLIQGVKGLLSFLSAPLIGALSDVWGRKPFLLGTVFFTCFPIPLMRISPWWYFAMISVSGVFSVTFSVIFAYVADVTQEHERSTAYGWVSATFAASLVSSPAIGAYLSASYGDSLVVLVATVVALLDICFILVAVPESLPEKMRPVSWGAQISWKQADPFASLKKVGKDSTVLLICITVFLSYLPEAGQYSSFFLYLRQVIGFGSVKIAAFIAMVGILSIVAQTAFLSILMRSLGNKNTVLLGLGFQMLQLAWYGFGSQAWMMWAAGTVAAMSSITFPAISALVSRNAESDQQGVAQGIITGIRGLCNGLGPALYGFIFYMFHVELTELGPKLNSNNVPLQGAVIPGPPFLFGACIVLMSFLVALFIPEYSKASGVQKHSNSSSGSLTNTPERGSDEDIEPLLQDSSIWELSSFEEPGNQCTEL
B9: Golgi SNAP receptor complex member 2 (Homo sapiens), O14653 (parent)
chain: B4 chain
partner: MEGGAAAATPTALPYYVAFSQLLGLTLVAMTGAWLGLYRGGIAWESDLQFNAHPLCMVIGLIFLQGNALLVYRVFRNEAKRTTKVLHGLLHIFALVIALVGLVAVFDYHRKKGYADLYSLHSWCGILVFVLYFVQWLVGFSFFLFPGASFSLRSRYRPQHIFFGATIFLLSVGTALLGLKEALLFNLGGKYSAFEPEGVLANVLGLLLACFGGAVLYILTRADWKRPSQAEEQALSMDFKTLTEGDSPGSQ
B10: Ceroid-lipofuscinosis neuronal protein 6 (Homo sapiens), Q9NWW5 (parent)
chain: B1 chain
partner: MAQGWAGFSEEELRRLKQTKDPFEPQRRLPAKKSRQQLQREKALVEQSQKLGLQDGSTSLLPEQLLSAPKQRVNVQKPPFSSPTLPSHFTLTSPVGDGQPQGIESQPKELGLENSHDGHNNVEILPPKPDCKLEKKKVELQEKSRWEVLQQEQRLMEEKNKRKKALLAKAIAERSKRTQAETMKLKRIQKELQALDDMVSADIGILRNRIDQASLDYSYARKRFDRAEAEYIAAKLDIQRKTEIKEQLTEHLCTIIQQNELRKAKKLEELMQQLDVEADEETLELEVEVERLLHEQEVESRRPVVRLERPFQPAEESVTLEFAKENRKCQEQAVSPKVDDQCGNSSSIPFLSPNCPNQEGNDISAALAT
B11: Ceroid-lipofuscinosis neuronal protein 6 (Homo sapiens), Q9NWW5 (parent)
chain: B1 chain
partner: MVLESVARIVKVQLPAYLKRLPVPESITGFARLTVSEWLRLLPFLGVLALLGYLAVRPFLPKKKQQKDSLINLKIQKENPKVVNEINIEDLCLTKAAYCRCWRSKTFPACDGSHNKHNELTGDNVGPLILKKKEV

The first assay covers variants of B1. Particulars: with znt4_human SLC30A4, O14863.
Turning to R6T, the “effect of a mutation on the interaction” value is reported as “with no effect”.

The variants in a further assay derive from B2. Particulars: with cld7_human CLDN7, O95471.
In the case of R6T, the “effect of a mutation on the interaction” value is given as “disrupting interaction strength”.
Still for that read-out and setting: for G123D the value was “with no effect”.

Variants of B3 are the subject of the next assay. Particulars: with vma21_human VMA21, Q3ZAQ7.
P182L: the “effect of a mutation on the interaction” value was “disrupting interaction strength”.

In the next assay the parent is B4. Particulars: with gpx8_human GPX8, Q8TED1.
With G144W, the “effect of a mutation on the interaction” value is recorded as “with no effect”.

Variants of B5 are the subject of another assay. Particulars: with 3hidh_human HIBADH.
For the variant G144W, the “effect of a mutation on the interaction” value was “disrupting interaction strength”.

In the next assay the parent is B6. Particulars: with elov5_human ELOVL5, Q9NYP7.
Turning to G144W, the “effect of a mutation on the interaction” value is “with no effect”.

The variants in the next assay derive from B7. Particulars: with cr3l1_human CREB3L1, Q96BA8.
R6T: the “effect of a mutation on the interaction” value is “with no effect”.
Turning to G123D, the “effect of a mutation on the interaction” value is “with no effect”.
Same read-out and setting: for L47F the value was “with no effect”.

The variants in a further assay derive from B8. Particulars: with mf14b_human MFSD14B.
For P182L, the “effect of a mutation on the interaction” value is “disrupting interaction strength”.

The next assay covers variants of B9. Particulars: with cy561_human CYB561, P49447.
As for G144W, the “effect of a mutation on the interaction” value is “with no effect”.

Variants of B10 are the subject of a further assay. Particulars: with gorab_human GORAB.
Regarding G123D, the “effect of a mutation on the interaction” value is on record as “with no effect”.
For L47F, the “effect of a mutation on the interaction” value was “with no effect”.
Still for that read-out and setting: for R6T the value was “with no effect”.

The variants in a further assay derive from B11. Particulars: with cisd2_human CISD2, Q8N5K1.
Take G123D: the “effect of a mutation on the interaction” value is “with no effect”.
Same read-out and setting: to R6T belongs “with no effect”.
